30 molecules from patent US20160305952A1 (ROCHE SEQUENCING SOLUTIONS, published 2016) can be followed below.

Where no end group is shown, it is not given here. Some results are limits rather than exact numbers.

T1 sequence (P22629 37-163 limits assumed): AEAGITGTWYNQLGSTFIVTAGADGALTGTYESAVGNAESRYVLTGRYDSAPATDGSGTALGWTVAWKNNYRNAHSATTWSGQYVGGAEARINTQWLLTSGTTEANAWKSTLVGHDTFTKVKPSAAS

The first test concerns the target T1, streptavidin (UniProt P22629 37-163, limits assumed).
T1 construct: amine-coupled to a CM5 chip for SPR; also called SA
The test can be described thus: SPR, Biacore X100, streptavidin on CM5 chip, peptide in solution; second KD value printed for the same peptide. The text has this:
(§1) A selection of streptavidin peptide binders listed in Table 15 were synthesized using standard column-based synthesis techniques by UW Biotechnology center (Madison, Wis.) or by Peptide2.0 (Chantilly, Va.) at 98-99% purity. Strep-tag II peptide NH2-[…]-COOH was purchased from IBA GmbH (Goettingen, Germany). Synthesized peptides were then characterized by Surface Plasmon Resonance (SPR) to identify binding characteristics including the association rate constant (kₛ), dissociation rate constant (kd), and equilibrium dissociation […] (kd/kₐ=KD). In one aspect, SPR experiments were performed by using Biacore X100 instrument (GE Healthcare). Preliminarily, 60 μl of 100 μg/ml streptavidin in 10 mM Na-acetate, pH5.0 was immobilized to flow cell 2 (Fc2) of a sensor chip CM5 (GE Healthcare) using Amine Coupling Kit (GE Healthcare) at 20° C. for 6 min. Peptide stock solutions were prepared at 5 or 10 mM concentration in water and diluted in HBS-EP+ (GE Healthcare) buffer before SPR experiments. Peptide binding was performed in a multiple kinetics mode using HBS-EP+ as a running buffer and 0.2 M NaCl, 10 mM NaOH or 10 mM HCl-glycine, […] as regeneration buffer. Binding kinetics parameters were calculated with Biacore X100 software.
Background: In SPR one partner is held on a chip, and binding of the other changes the refractive index at the surface.
In general, Kd refers to the free concentration of one partner at which half of the binding sites on the other are occupied at equilibrium, for simple one-to-one binding. Read a high Kd as lower affinity. In turn, H-EWVHPQFEQKAK-NH2 (free peptide) [NH2-EWVHPQFEQKAK-amide] registered a Kd of 5.87 µM.

A further test deals with Taq polymerase (UniProt P19821 1-832). The experiment in a line: peptide array, 5-mer library, 5Z linker.
Chain of Taq polymerase (P19821 whole entry): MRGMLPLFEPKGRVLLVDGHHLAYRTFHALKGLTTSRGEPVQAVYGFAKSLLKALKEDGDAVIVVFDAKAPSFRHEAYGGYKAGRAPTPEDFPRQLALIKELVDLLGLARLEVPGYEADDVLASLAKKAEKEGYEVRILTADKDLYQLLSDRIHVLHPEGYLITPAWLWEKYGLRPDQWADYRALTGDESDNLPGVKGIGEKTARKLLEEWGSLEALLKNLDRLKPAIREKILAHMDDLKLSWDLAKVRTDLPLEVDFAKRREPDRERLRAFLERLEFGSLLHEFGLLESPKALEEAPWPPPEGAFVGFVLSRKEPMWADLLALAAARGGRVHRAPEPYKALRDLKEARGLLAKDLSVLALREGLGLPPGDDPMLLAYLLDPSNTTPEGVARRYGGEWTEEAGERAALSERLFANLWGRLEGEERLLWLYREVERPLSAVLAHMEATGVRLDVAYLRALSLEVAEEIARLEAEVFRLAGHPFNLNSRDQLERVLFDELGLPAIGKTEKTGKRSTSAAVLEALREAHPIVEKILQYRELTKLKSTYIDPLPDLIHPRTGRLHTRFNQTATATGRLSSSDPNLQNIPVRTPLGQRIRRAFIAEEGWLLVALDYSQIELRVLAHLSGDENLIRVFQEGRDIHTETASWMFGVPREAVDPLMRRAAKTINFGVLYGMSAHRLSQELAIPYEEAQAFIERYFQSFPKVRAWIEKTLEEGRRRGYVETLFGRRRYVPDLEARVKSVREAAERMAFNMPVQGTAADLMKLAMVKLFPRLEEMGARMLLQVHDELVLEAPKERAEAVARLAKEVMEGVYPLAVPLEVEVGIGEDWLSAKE
Turning to HYFEF (also: array-bound via 5Z linker), the binding result is “binds”. The same measure, in the same setting: for WKAEK (also: array-bound via 5Z linker) the value was “binds”; for WDWDW (also: array-bound via 5Z linker), “binds”. For HEFSF (also: array-bound via 5Z linker), the binding result is “binds”. On to WKEDW (also: array-bound via 5Z linker), for which the binding result is listed as “binds”. The same measure, in the same setting: the result for WTKVK (also: array-bound via 5Z linker) reads “binds”.

A further test addresses T1, streptavidin. The test can be described thus: SPR, Biacore X100, streptavidin on CM5 chip, peptide in solution.
Description: as §1
The koff is the first-order rate constant of dissociation. A high value points to fast dissociation. As a reminder, the kon is the second-order rate constant of association. H-RDPAPAWAHGGG-NH2 (free peptide) [NH2-RDPAPAWAHGGG-amide] yielded a Kd of 4.66 µM, a koff of 0.0696 s⁻¹ and a kon of 14900 M⁻¹ s⁻¹.

On to H-EWVHPQFEQKAK-NH2 (free peptide) [NH2-EWVHPQFEQKAK-amide], for which the Kd was 5.68 µM.

The target of a further test is T2, Prostate Specific Antigen (human, UniProt P07288 25-261).
T2 construct: also called PSA
T2 sequence (P07288 25-261 limits assumed): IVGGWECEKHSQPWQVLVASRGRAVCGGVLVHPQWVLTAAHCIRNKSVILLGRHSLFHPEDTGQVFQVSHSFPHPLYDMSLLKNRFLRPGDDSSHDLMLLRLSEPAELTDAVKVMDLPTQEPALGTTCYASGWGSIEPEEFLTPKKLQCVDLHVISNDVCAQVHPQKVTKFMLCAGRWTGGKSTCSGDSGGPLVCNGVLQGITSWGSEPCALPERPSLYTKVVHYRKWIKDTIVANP
The test can be described thus: peptide array, extension library, 3Z linker.
As to SEWTVYAGN (also: array-bound via 3Z linker), the binding result is “binds”. Still for that read-out and setting: the result for SCRSILYGQ (also: array-bound via 3Z linker) reads “binds”; that for SCRSILYGP (also: array-bound via 3Z linker), “binds”. Still for that read-out and setting: the result for GDWTVYAGN (also: array-bound via 3Z linker) reads “binds”; that for SCRSILYND (also: array-bound via 3Z linker), “binds”. On to TGWEVHLGK (also: array-bound via 3Z linker), for which the binding result is “binds”. Take GQWEVHLGK (also: array-bound via 3Z linker): the binding result was “binds”.

A further test deals with T2, Prostate Specific Antigen. The test can be described thus: peptide array, double substitution/deletion library.
For the molecule GTGWEVHLGKG, the binding result is given as “binds”. On to GTDFEVYFPKI, for which the binding result is reported as “binds”. The same measure, in the same setting: for ALDWQVYAGFG the value was “binds”.

Another test addresses T1, streptavidin. The experiment in a line: SPR.
Description: as §1
Consider H-RDPAPAWAHGGG-NH2 (free peptide) [NH2-RDPAPAWAHGGG-amide], for which the “fold change in KD as compared with the parent peptide …” value was no less than 100 fold.

For a further test, the target named is T3, Tumor Necrosis Factor Alpha (human, UniProt P01375 77-233).
T3 construct: also called TNFα; TNF-α
T3 sequence (P01375 77-233 limits assumed): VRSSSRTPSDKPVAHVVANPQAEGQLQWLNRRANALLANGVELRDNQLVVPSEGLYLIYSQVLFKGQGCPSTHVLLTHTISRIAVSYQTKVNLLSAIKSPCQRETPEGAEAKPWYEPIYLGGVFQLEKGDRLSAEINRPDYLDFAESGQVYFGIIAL
The test can be described thus: peptide array, 5-mer library, 5Z linker.
As for ALYLF (also: array-bound via 5Z linker), the binding result was “binds”. Turning to TAVFV (also: array-bound via 5Z linker), the binding result is “binds”. Still for that read-out and setting: the result for VTVYV (also: array-bound via 5Z linker) reads “binds”; that for AIAIF (also: array-bound via 5Z linker), “binds”.

The next test addresses T3, Tumor Necrosis Factor Alpha. The test can be described thus: peptide array, extension library, 3Z linker.
Regarding DGALYLFGN (also: array-bound via 3Z linker), the binding result is listed as “binds”. Turning to GGTAVFVNT (also: array-bound via 3Z linker), the binding result was “binds”. Take QAAIAIFGG (also: array-bound via 3Z linker): the binding result is listed as “binds”. Take TSVTVYVNN (also: array-bound via 3Z linker): the binding result was “binds”.

For the next test, the target named is T2, Prostate Specific Antigen. The experiment in a line: peptide array, 5-mer library, 5Z linker.
Take WEVHL (also: array-bound via 5Z linker): the binding result is given as “binds”.

For the molecule RSILY (also: array-bound via 5Z linker), the binding result is “binds”. As to WTVYA (also: array-bound via 5Z linker), the binding result is recorded as “binds”.

For FEVYL (also: array-bound via 5Z linker), the binding result is recorded as “binds”.
